This is an account of results in patent US20210269771A1 (RAMOT AT TEL AVIV UNIVERSITY, published 2021).

Assay [1] has as its target T1, gp120 antigen of the YU2.DG HIV strain, His-tagged (HIV-1 strain YU2.DG, UniProt P35961 32-498).
T1 construct: domain: gp120; also called gp120-YU2.DG; gp120-YU2
Briefly: flow cytometry on engineered primary human and murine B cells. A general note: In flow cytometry, cells or beads pass a laser one at a time.

Assay [2] deals with T1, gp120 antigen of the YU2.DG HIV strain, …. Briefly: ELISA (FIG. 15A). On the technique in general: ELISA stands for enzyme-linked immunosorbent assay.
Procedure: Enzyme Linked Immunosorbent assay. […] Plates were washed with PBST and blocked for two hours with 5% BSA in PBST, washed again and detection antibodies, anti-mouse IgA(abcam) or anti-mouse IgG or anti-mouse IgG1 or anti-mouse IgM (Jackson ImmunoResearch) were provided for an additional incubation of two hours at 2 μg/ml in PBST. Before detection with QuantaBlu (ThermoFisher) according to manufacturer protocols, plates were washed for an additional round. Detection was done in a Synergy M1 Plate reader (Biotek). The concentration of antigen specific antibodies was determined by reference to the dilution factor of the standard curve.

B1: 3BNC117 expressed as a membranal B cell receptor (BCR) on engineered B cells (antibody, V domains shown)
VH: QVQLLQSGAAVTKPGASVRVSCEASGYNIRDYFIHWWRQAPGQGLQWVGWINPKTGQPNNPRQFQGRVSLTRHASWDFDTFSFYMDLKALRSDDTAVYFCARQRSDYWDFDVWGSGTQVTVSS
VL: DIQMTQSPSSLSASVGDTVTITCQANGYLNWYQQRRGKAPKLLIYDGSKLERGVPSRFSGRRWGQEYNLTINNLQPEDIATYFCQVYEFVVPGTRLDLK
notes: also called 3BNC117 BCR; ADN171
Take B1: the binding result in assay [1] was “binds”.

B2: 3BNC117 antibody, recombinant, expressed in Expi293F cells and purified (antibody, V domains shown)
VH: B1 VH
VL: B1 VL
notes: also called pADN210 (light chain) / pADN211 (heavy chain)
In the case of B2, in assay [2], the binding result is “binds”.
